{
  "source": "patent US20200276130",
  "proteins": {"B1": {"name": "recombinant CARM1 used in the in vitro methylation assays (protein)", "chain": "MAAAAAAVGPGAGGAGSAVPGGAGPCATVSVFPGARLLTIGDANGEIQRHAEQQALRLEVRAGPDSAGIALYSHEDVCVFKCSVSRETECSRVGKQSFIITLGCNSVLIQFATPNDFCSFYNILKTCRGHTLERSVFSERTEESSAVQYFQFYGYLSQQQNMMQDYVRTGTYQRAILQNHTDFKDKIVLDVGCGSGILSFFAAQAGARKIYAVEASTMAQHAEVLVKSNNLTDRIVVIPGKVEEVSLPEQVDIIISEPMGYMLFNERMLESYLHAKKYLKPSGNMFPTIGDVHLAPFTDEQLYMEQFTKANFWYQPSFHGVDLSALRGAAVDEYFRQPVVDTFDIRILMAKSVKYTVNFLEAKEGDLHRIEIPFKFHMLHSGLVHGLAFWFDVAFIGSIMTVWLSTAPTEPLTHWYQVRCLFQSPLFAKAGDTLSGTCLLIANKRQSYDISIVAQVDQTGSKSSNLLDLKNPFFRYTGTTPSPPPGSHYTSPSENMWNTGSTYNLSSGMAVAGMPTAYDLSSVIASGSSVGHNNLIPLANTGIVNHTHSRMGSIMSTGIVQGSSGAQGSGGGSTSAHYAVNSQFTMGGPAISMASPMSIPTNTMHYGS"}},
  "key": {"[1]": {"target": "GST-PKM1 recombinant protein, P14618", "sequence (P14618 other isoform, or with tags, fused parts or gaps)": "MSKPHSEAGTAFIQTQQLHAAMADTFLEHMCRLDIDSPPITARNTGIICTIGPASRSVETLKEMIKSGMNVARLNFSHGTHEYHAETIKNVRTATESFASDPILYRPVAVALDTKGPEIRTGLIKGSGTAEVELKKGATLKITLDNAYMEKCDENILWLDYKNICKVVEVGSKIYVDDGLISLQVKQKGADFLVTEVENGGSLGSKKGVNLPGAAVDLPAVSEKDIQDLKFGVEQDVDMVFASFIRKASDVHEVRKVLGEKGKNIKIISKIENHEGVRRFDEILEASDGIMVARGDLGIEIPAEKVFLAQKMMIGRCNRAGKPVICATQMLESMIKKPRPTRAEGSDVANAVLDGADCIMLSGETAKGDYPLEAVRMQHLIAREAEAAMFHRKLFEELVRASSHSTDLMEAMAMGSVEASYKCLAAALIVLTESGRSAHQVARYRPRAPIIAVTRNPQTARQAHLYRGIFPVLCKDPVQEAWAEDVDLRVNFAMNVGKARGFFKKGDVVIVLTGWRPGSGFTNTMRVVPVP"}, "[2]": {"target": "GST-PKM2 recombinant protein, P14618", "sequence (P14618 whole entry, looked up)": "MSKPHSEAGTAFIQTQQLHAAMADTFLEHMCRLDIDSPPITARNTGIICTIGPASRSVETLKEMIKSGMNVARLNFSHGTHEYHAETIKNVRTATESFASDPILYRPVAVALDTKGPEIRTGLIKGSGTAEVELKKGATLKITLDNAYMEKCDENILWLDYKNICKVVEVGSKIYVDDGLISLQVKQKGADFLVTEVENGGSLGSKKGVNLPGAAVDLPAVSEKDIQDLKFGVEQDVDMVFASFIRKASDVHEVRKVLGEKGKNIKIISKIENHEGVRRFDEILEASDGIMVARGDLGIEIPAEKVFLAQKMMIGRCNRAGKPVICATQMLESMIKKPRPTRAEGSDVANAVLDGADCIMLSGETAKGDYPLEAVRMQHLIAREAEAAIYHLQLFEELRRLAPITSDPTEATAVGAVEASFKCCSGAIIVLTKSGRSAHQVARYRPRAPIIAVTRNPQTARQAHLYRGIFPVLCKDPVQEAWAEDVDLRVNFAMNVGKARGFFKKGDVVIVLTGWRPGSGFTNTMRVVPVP"}},
  "data": [
    {"protein": "B1", "values": [
      {"measurement": "in vitro methylation assay (3H-SAM, autoradiography)", "setting": "[1]", "value": "only PKM2, but not PKM1, can be methylated by CARM1 in in vitro methylation assays"},
      {"measurement": "in vitro methylation assay (3H-SAM, autoradiography)", "setting": "[2]", "value": "only PKM2, but not PKM1, can be methylated by CARM1 in in vitro methylation assays"}
    ]}
  ]
}
